Paper PMC11933844, “Autosuppression of MdNAC18.1 endowed by a 61‐bp promoter fragment duplication delays maturity date in apple”

T1: MdNAC72 (UniProt A0A498KB81 69-407)
T1 sequence: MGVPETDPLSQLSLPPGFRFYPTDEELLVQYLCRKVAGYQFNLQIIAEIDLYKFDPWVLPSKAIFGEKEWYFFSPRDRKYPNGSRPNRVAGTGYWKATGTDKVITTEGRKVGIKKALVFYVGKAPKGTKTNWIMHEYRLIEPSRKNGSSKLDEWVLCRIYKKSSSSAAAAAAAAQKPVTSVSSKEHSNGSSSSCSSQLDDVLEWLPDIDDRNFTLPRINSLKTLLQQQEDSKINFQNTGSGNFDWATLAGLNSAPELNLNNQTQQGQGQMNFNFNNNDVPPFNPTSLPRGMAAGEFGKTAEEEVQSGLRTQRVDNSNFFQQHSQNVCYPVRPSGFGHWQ


Molecular target: MdNAC18.1 (UniProt A0A498K6T8 1-364)
Experiment: EMSA; Beyotime Chemiluminescent EMSA Kit GS009; buffer, salt, pH and temperature not stated
Conditions: protein: recombinant; tags: His (pET32A); chain copies: 2; blunt

Sequence of MdNAC18.1 (A0A498K6T8 entry or part of it): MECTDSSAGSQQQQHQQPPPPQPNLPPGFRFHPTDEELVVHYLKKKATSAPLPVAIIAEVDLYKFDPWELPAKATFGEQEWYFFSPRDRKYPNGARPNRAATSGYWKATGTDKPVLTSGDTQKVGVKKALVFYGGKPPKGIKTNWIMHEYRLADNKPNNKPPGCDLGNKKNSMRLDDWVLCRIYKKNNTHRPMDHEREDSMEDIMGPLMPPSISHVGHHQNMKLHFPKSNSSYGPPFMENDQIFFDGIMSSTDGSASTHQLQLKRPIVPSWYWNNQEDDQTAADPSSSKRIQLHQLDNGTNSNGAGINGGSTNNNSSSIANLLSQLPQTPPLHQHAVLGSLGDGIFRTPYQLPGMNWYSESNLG

Binder	binding result
MdACS1 promoter probe mutant (dsDNA) DNA 1: GTACACTTATAATAAAAAAACAAGTTTGTAGGTAAT DNA 2: ATTACCTACAAACTTGTTTTTTTATTATAAGTGTAC	no binding
MdNAC18.1 P promoter probe mutant (dsDNA) DNA 1: GACATACAATGTTCTGATTCGTATGAGATAACTTAA DNA 2: TTAAGTTATCTCATACGAATCAGAACATTGTATGTC	no binding
MdMYC2 promoter probe NACBS1 (dsDNA) DNA 1: TCTGGGATCCTGGTTTCACGGGTTTTCGAGGTTTTC DNA 2: GAAAACCTCGAAAACCCGTGAAACCAGGATCCCAGA	binds
MdACO1-like promoter probe mutant (dsDNA) DNA 1: TCAAGTACCATAACAAAAAATAACTTGCAAAGTTCC DNA 2: GGAACTTTGCAAGTTATTTTTTGTTATGGTACTTGA	no binding

Same assay, conditions: protein: recombinant; tags: His (pET32A); chain copies: 2; label: 3' biotin; blunt

Binder	binding result
MdACS1 promoter probe NACBS5 (dsDNA) DNA 1: GTACACTTATAATCCCCACGCAAGTTTGTAGGTAAT DNA 2: ATTACCTACAAACTTGCGTGGGGATTATAAGTGTAC	binds
MdNAC18.1 P promoter probe (CTAAC) (dsDNA) DNA 1: GACATACAATGTTCTGATTCGTATTCTAACACTTAA DNA 2: TTAAGTGTTAGAATACGAATCAGAACATTGTATGTC	binds
MdNAC72 promoter probe NACBS1 (dsDNA) DNA 1: TATTGACCCACATTTGCACGTAGCCTTGTAAACTTG DNA 2: CAAGTTTACAAGGCTACGTGCAAATGTGGGTCAATA	binds
MdACO1-like promoter probe NACBS1 (dsDNA) DNA 1: TCAAGTACCATAACTACACGTAACTTGCAAAGTTCC DNA 2: GGAACTTTGCAAGTTACGTGTAGTTATGGTACTTGA	binds

Molecular target: T1, MdNAC72
Experiment: as above
Conditions: protein: recombinant; tags: His (pET32A); chain copies: 2; label: 3' biotin; blunt

Binder	binding result
MdACO1-like promoter probe NACBS1 (dsDNA) DNA 1: TCAAGTACCATAACTACACGTAACTTGCAAAGTTCC DNA 2: GGAACTTTGCAAGTTACGTGTAGTTATGGTACTTGA	binds
